Results reported in US20250043302A1, “MUTATED HYDROXYPHENYLPYRUVATE DIOXYGENASE POLYPEPTIDE, AND CODING GENE AND USE THEREOF” (BEIJING DABEINONG BIOTECHNOLOGY CO., LTD., priority 2021, published 2025).

Assays:
[1] = test system: Arabidopsis thaliana T1 plants; experiment: Isoxaflutole tolerance of transgenic Arabidopsis thaliana T1 plants (spray, bleached leaf area grade, damage score); format: in vivo; conditions: for Classification and statistics of the grade of pesticide damage Grade 0 / Classification and statistics of the grade of pesticide damage Grade 1 / Classification and statistics of the grade of pesticide damage Grade 2 / Classification and statistics of the grade of pesticide damage Grade 3: number of plants in grade;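 as to Scores: Weighted damage index from 0 to 100 where higher means more damage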
Summary of the method: (§1)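 Damage graded 0–3 from the proportion of bleached leaf area 7 days after spraying. Plants were glufosinate-selected T1 lines, 18 days after sowing, plus vector and wild-type controls. Rates: mesotrione 52.5–420, isoxaflutole 35–280, topramezone 25–200 g ai/ha, with water (0×).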

[2] = test system: Arabidopsis thaliana T1 plants; experiment: Mesotrione tolerance of transgenic Arabidopsis thaliana T1 plants (spray, bleached leaf area grade, damage score); format: in vivo; parameters: Scores: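 damage score 0-100 computed as Σ(N×S)/(T×M)×100 over grades 0-3 with higher meaning more damage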; conditions: for Classification and statistics of the grade of pesticide damage Grade 0 / Classification and statistics of the grade of pesticide damage Grade 1 / Classification and statistics of the grade of pesticide damage Grade 2 / Classification and statistics of the grade of pesticide damage Grade 3: number of plants in grade
Summary of the method: as §1

B1: AsHPPDm-F372A-F383Y-02: nucleotide sequence encoding Avena sativa HPPD with F372A+F383Y; vector DBN11796 (nucleic acid)
DNA: ATGCCACCTACTCCAGCTACAGCTACTGGTGCTGCTGCTGCTGCCGTTACTCCTGAGCACGCTGCCAGGTCATTCCCCAGGGTGGTTCGCGTGAACCCCAGATCTGATAGGTTCCCAGTTCTGAGCTTCCACCATGTTGAGCTGTGGTGCGCTGATGCTGCTTCTGCTGCTGGCAGGTTCTCTTTCGCTCTTGGTGCTCCACTCGCTGCTAGATCTGATCTGTCTACAGGAAATAGCGCTCATGCCTCACTCCTGCTTCGCTCAGGTGCTTTGGCCTTCCTCTTCACCGCTCCATATGCTCCCCCACCTCAGGAGGCTGCTACTGCTGCTGCTACAGCCTCCATTCCAAGCTTCTCAGCTGATGCCGCTAGAACCTTCGCTGCTGCTCATGGACTTGCCGTGAGGTCTGTTGGTGTTCGCGTGGCTGATGCTGCTGAGGCTTTCAGAGTTTCCGTTGCCGGCGGAGCTAGGCCAGCTTTCGCTCCTGCTGATTTGGGACATGGTTTCGGCCTGGCTGAGGTTGAGCTTTACGGTGACGTGGTTCTCCGCTTCGTGTCTTACCCAGATGAGACTGACCTGCCTTTCCTTCCCGGCTTCGAGAGAGTTTCCTCTCCTGGTGCCGTGGATTACGGCCTGACAAGGTTCGACCACGTGGTTGGAAACGTTCCCGAGATGGCTCCAGTGATCGATTACATGAAGGGCTTCCTTGGATTCCATGAGTTCGCCGAGTTCACTGCTGAGGACGTGGGAACCACTGAGTCCGGTTTGAACTCTGTGGTTCTCGCCAACAATTCTGAGGCTGTTTTGCTCCCTCTGAATGAGCCTGTGCATGGAACCAAGAGGAGAAGCCAGATTCAAACTTACCTGGAGTACCACGGTGGCCCTGGAGTTCAGCATATCGCCCTTGCTTCTAATGATGTGTTGCGCACACTCAGAGAGATGCGCGCCAGAACCCCCATGGGAGGTTTCGAGTTCATGGCCCCACCACAGGCTAAGTACTACGAGGGCGTTAGAAGGATTGCTGGAGACGTGTTGAGCGAGGAGCAGATCAAGGAGTGCCAAGAGCTGGGTGTTCTTGTGGATAGGGATGACCAGGGCGTTCTGCTTCAAATTGCCACTAAGCCAGTGGGCGACCGCCCTACATTCTATCTTGAGATGATTCAAAGAATCGGCTGCATGGAGAAGGATGAGGTTGGACAGGAGTACCAAAAGGGCGGATGCGGTGGCTTCGGAAAGGGTAACTTCAGCGAGTTGTTCAAGTCAATCGAGGACTACGAGAAGAGCCTCGAGGTGAAGCAGTCAGTGGTTGCCCAAAAGTCCTGA
modifications: AsHPPDm-F372A-F383Y-02 Nucleotide Sequence
notes: vector DBN11796
Resistance evaluation ([1]; isoxaflutole 140 g ai/ha): Moderately | Scores ([1]; isoxaflutole 140 g ai/ha): 33 | Classification and statistics of the grade of pesticide damage Grade 0 ([1]; isoxaflutole 140 g ai/ha): 5 | Classification and statistics of the grade of pesticide damage Grade 1 ([1]; isoxaflutole 140 g ai/ha): 6 | Classification and statistics of the grade of pesticide damage Grade 2 ([1]; isoxaflutole 140 g ai/ha): 5 | Classification and statistics of the grade of pesticide damage Grade 3 ([1]; isoxaflutole 140 g ai/ha): 0 | Resistance evaluation ([1]; isoxaflutole 280 g ai/ha): Poorly | Scores ([1]; isoxaflutole 280 g ai/ha): 67 | Classification and statistics of the grade of pesticide damage Grade 0 ([1]; isoxaflutole 280 g ai/ha): 0 | Classification and statistics of the grade of pesticide damage Grade 1 ([1]; isoxaflutole 280 g ai/ha): 0 | Classification and statistics of the grade of pesticide damage Grade 2 ([1]; isoxaflutole 280 g ai/ha): 16 | Classification and statistics of the grade of pesticide damage Grade 3 ([1]; isoxaflutole 280 g ai/ha): 0 | Resistance evaluation ([2]; mesotrione 210 g ai/ha): Moderately | Scores ([2]; mesotrione 210 g ai/ha): 33 | Classification and statistics of the grade of pesticide damage Grade 0 ([2]; mesotrione 210 g ai/ha): 5 | Classification and statistics of the grade of pesticide damage Grade 1 ([2]; mesotrione 210 g ai/ha): 6 | Classification and statistics of the grade of pesticide damage Grade 2 ([2]; mesotrione 210 g ai/ha): 5 | Classification and statistics of the grade of pesticide damage Grade 3 ([2]; mesotrione 210 g ai/ha): 0 | Resistance evaluation ([2]; mesotrione 420 g ai/ha): Poorly resistant | Scores ([2]; mesotrione 420 g ai/ha): 52 | Classification and statistics of the grade of pesticide damage Grade 0 ([2]; mesotrione 420 g ai/ha): 0 | Classification and statistics of the grade of pesticide damage Grade 1 ([2]; mesotrione 420 g ai/ha): 8 | Classification and statistics of the grade of pesticide damage Grade 2 ([2]; mesotrione 420 g ai/ha): 7 | Classification and statistics of the grade of pesticide damage Grade 3 ([2]; mesotrione 420 g ai/ha): 1
